{"source": "patent US20060263802A1", "about": "(CRUCELL HOLLAND B V, published 2006)", "binders": {"B1": {"name": "human monoclonal antibody CRJA (antibody, V domains shown)", "VH": "EVQLLESGGGLVQPGGSLRLSCAASGFTFSNYAMSWVRQAPGKGLEWVSAISASGHSTYLADSVKGRFTISRDNSKNTLYLQMNSLRAEDTAVYYCAKDREVTMIVVLNGGFDYWGQGTRVTVSS", "VL": "EIVLTQSPATLSLSPGERATLACRASQTASRYLAWYQQKPGQAPRLLIYDTSNRATGIPARFSGSGSGTDFTLSISSLEPEDFAVYYCQQRFNWPWTFGQGTKVEFK"}}, "experiment_in_all_cases": "PEPSCAN ELISA, looped peptide, antibody 10 µg/ml", "key": {"[1]": {"molecular_target": "looped/cyclic peptide … (rabies virus strain ERA)"}, "[2]": {"molecular_target": "looped/cyclic peptide … (rabies virus strain ERA)", "remark": "listed apart in the source"}, "[3]": {"molecular_target": "looped/cyclic peptide … (rabies virus strain ERA)", "remark": "listed apart in the source"}, "[4]": {"molecular_target": "looped/cyclic peptide … (rabies virus strain ERA)", "remark": "listed apart in the source"}, "[5]": {"molecular_target": "looped/cyclic peptide … (rabies virus strain ERA)", "remark": "listed apart in the source"}, "[6]": {"molecular_target": "looped/cyclic peptide … (rabies virus strain ERA)", "remark": "listed apart in the source"}, "[7]": {"molecular_target": "looped/cyclic peptide … (rabies virus strain ERA)", "remark": "listed apart in the source"}, "[8]": {"molecular_target": "looped/cyclic peptide … (rabies virus strain ERA)", "remark": "listed apart in the source"}, "[9]": {"molecular_target": "looped/cyclic peptide … (rabies virus strain ERA)", "remark": "listed apart in the source"}, "[10]": {"molecular_target": "looped/cyclic peptide … (rabies virus strain ERA)", "remark": "listed apart in the source"}, "[11]": {"molecular_target": "looped/cyclic peptide … (rabies virus strain ERA)", "remark": "listed apart in the source"}, "[12]": {"molecular_target": "looped/cyclic peptide … (rabies virus strain ERA)", "remark": "listed apart in the source"}, "[13]": {"molecular_target": "looped/cyclic peptide … (rabies virus strain ERA)", "remark": "listed apart in the source"}, "[14]": {"molecular_target": "looped/cyclic peptide … (rabies virus strain ERA)", "remark": "listed apart in the source"}, "[15]": {"molecular_target": "looped/cyclic peptide … (rabies virus strain ERA)", "remark": "listed apart in the source"}, "[16]": {"molecular_target": "looped/cyclic peptide … (rabies virus strain ERA)", "remark": "listed apart in the source"}, "[17]": {"molecular_target": "looped/cyclic peptide … (rabies virus strain ERA)", "remark": "listed apart in the source"}, "[18]": {"molecular_target": "looped/cyclic peptide … (rabies virus strain ERA)", "remark": "listed apart in the source"}, "[19]": {"molecular_target": "looped/cyclic peptide … (rabies virus strain ERA)", "remark": "listed apart in the source"}, "[20]": {"molecular_target": "looped/cyclic peptide … (rabies virus strain ERA)", "remark": "listed apart in the source"}, "[21]": {"molecular_target": "looped/cyclic peptide … (rabies virus strain ERA)", "remark": "listed apart in the source"}, "[22]": {"molecular_target": "looped/cyclic peptide … (rabies virus strain ERA)", "remark": "listed apart in the source"}, "[23]": {"molecular_target": "looped/cyclic peptide … (rabies virus strain ERA)", "remark": "listed apart in the source"}, "[24]": {"molecular_target": "looped/cyclic peptide … (rabies virus strain ERA)", "remark": "listed apart in the source"}, "[25]": {"molecular_target": "looped/cyclic peptide … (rabies virus strain ERA)", "remark": "listed apart in the source"}, "[26]": {"molecular_target": "looped/cyclic peptide … (rabies virus strain ERA)", "remark": "listed apart in the source"}, "[27]": {"molecular_target": "looped/cyclic peptide … (rabies virus strain ERA)", "remark": "listed apart in the source"}, "[28]": {"molecular_target": "looped/cyclic peptide … (rabies virus strain ERA)", "remark": "listed apart in the source"}, "[29]": {"molecular_target": "looped/cyclic peptide … (rabies virus strain ERA)", "remark": "listed apart in the source"}, "[30]": {"molecular_target": "looped/cyclic peptide … (rabies virus strain ERA)", "remark": "listed apart in the source"}, "[31]": {"molecular_target": "looped/cyclic peptide … (rabies virus strain ERA)", "remark": "listed apart in the source"}, "[32]": {"molecular_target": "looped/cyclic peptide DIHHLSCPNNLVVED (rabies virus strain ERA)"}, "[33]": {"molecular_target": "looped/cyclic peptide … (rabies virus strain ERA)", "remark": "listed apart in the source"}, "[34]": {"molecular_target": "looped/cyclic peptide … (rabies virus strain ERA)", "remark": "listed apart in the source"}, "[35]": {"molecular_target": "looped/cyclic peptide … (rabies virus strain ERA)", "remark": "listed apart in the source"}, "[36]": {"molecular_target": "looped/cyclic peptide … (rabies virus strain ERA)", "remark": "listed apart in the source"}, "[37]": {"molecular_target": "looped/cyclic peptide … (rabies virus strain ERA)", "remark": "listed apart in the source"}, "[38]": {"molecular_target": "looped/cyclic peptide … (rabies virus strain ERA)", "remark": "listed apart in the source"}, "[39]": {"molecular_target": "looped/cyclic peptide … (rabies virus strain ERA)", "remark": "listed apart in the source"}, "[40]": {"molecular_target": "looped/cyclic peptide … (rabies virus strain ERA)", "remark": "listed apart in the source"}, "[41]": {"molecular_target": "looped/cyclic peptide … (rabies virus strain ERA)", "remark": "listed apart in the source"}, "[42]": {"molecular_target": "looped/cyclic peptide … (rabies virus strain ERA)", "remark": "listed apart in the source"}, "[43]": {"molecular_target": "looped/cyclic peptide … (rabies virus strain ERA)", "remark": "listed apart in the source"}, "[44]": {"molecular_target": "looped/cyclic peptide … (rabies virus strain ERA)", "remark": "listed apart in the source"}, "[45]": {"molecular_target": "looped/cyclic peptide … (rabies virus strain ERA)", "remark": "listed apart in the source"}, "[46]": {"molecular_target": "looped/cyclic peptide … (rabies virus strain ERA)", "remark": "listed apart in the source"}, "[47]": {"molecular_target": "looped/cyclic peptide … (rabies virus strain ERA)", "remark": "listed apart in the source"}, "[48]": {"molecular_target": "looped/cyclic peptide … (rabies virus strain ERA)", "remark": "listed apart in the source"}, "[49]": {"molecular_target": "looped/cyclic peptide … (rabies virus strain ERA)", "remark": "listed apart in the source"}, "[50]": {"molecular_target": "looped/cyclic peptide … (rabies virus strain ERA)", "remark": "listed apart in the source"}, "[51]": {"molecular_target": "looped/cyclic peptide … (rabies virus strain ERA)", "remark": "listed apart in the source"}, "[52]": {"molecular_target": "looped/cyclic peptide … (rabies virus strain ERA)", "remark": "listed apart in the source"}, "[53]": {"molecular_target": "looped/cyclic peptide … (rabies virus strain ERA)", "remark": "listed apart in the source"}, "[54]": {"molecular_target": "looped/cyclic peptide … (rabies virus strain ERA)", "remark": "listed apart in the source"}, "[55]": {"molecular_target": "looped/cyclic peptide … (rabies virus strain ERA)", "remark": "listed apart in the source"}, "[56]": {"molecular_target": "looped/cyclic peptide … (rabies virus strain ERA)", "remark": "listed apart in the source"}, "[57]": {"molecular_target": "looped/cyclic peptide … (rabies virus strain ERA)", "remark": "listed apart in the source"}, "[58]": {"molecular_target": "looped/cyclic peptide … (rabies virus strain ERA)", "remark": "listed apart in the source"}, "[59]": {"molecular_target": "looped/cyclic peptide … (rabies virus strain ERA)", "remark": "listed apart in the source"}, "[60]": {"molecular_target": "looped/cyclic peptide … (rabies virus strain ERA)", "remark": "listed apart in the source"}}}
{"binder": "B1", "values": [{"measurement": "OD value", "setting": "[1]", "result": 58, "unit": "OD"}, {"measurement": "OD value", "setting": "[2]", "result": 92, "unit": "OD"}, {"measurement": "OD value", "setting": "[3]", "result": 90, "unit": "OD"}, {"measurement": "OD value", "setting": "[4]", "result": 51, "unit": "OD"}, {"measurement": "OD value", "setting": "[5]", "result": 96, "unit": "OD"}, {"measurement": "OD value", "setting": "[6]", "result": 117, "unit": "OD"}, {"measurement": "OD value", "setting": "[7]", "result": 89, "unit": "OD"}, {"measurement": "OD value", "setting": "[8]", "result": 123, "unit": "OD"}, {"measurement": "OD value", "setting": "[9]", "result": 71, "unit": "OD"}, {"measurement": "OD value", "setting": "[10]", "result": 87, "unit": "OD"}, {"measurement": "OD value", "setting": "[11]", "result": 54, "unit": "OD"}, {"measurement": "OD value", "setting": "[12]", "result": 112, "unit": "OD"}, {"measurement": "OD value", "setting": "[13]", "result": 88, "unit": "OD"}, {"measurement": "OD value", "setting": "[14]", "result": 54, "unit": "OD"}, {"measurement": "OD value", "setting": "[15]", "result": 45, "unit": "OD"}, {"measurement": "OD value", "setting": "[16]", "result": 96, "unit": "OD"}, {"measurement": "OD value", "setting": "[17]", "result": 84, "unit": "OD"}, {"measurement": "OD value", "setting": "[18]", "result": 83, "unit": "OD"}, {"measurement": "OD value", "setting": "[19]", "result": 78, "unit": "OD"}, {"measurement": "OD value", "setting": "[20]", "result": 78, "unit": "OD"}, {"measurement": "OD value", "setting": "[21]", "result": 72, "unit": "OD"}, {"measurement": "OD value", "setting": "[22]", "result": 38, "unit": "OD"}, {"measurement": "OD value", "setting": "[23]", "result": 43, "unit": "OD"}, {"measurement": "OD value", "setting": "[24]", "result": 89, "unit": "OD"}, {"measurement": "OD value", "setting": "[25]", "result": 100, "unit": "OD"}, {"measurement": "OD value", "setting": "[26]", "result": 58, "unit": "OD"}, {"measurement": "OD value", "setting": "[27]", "result": 93, "unit": "OD"}, {"measurement": "OD value", "setting": "[28]", "result": 71, "unit": "OD"}, {"measurement": "OD value", "setting": "[29]", "result": 78, "unit": "OD"}, {"measurement": "OD value", "setting": "[30]", "result": 62, "unit": "OD"}, {"measurement": "OD value", "setting": "[31]", "result": 92, "unit": "OD"}, {"measurement": "OD value", "setting": "[32]", "result": 62, "unit": "OD"}, {"measurement": "OD value", "setting": "[33]", "result": 86, "unit": "OD"}, {"measurement": "OD value", "setting": "[34]", "result": 86, "unit": "OD"}, {"measurement": "OD value", "setting": "[35]", "result": 57, "unit": "OD"}, {"measurement": "OD value", "setting": "[36]", "result": 84, "unit": "OD"}, {"measurement": "OD value", "setting": "[37]", "result": 100, "unit": "OD"}, {"measurement": "OD value", "setting": "[38]", "result": 100, "unit": "OD"}, {"measurement": "OD value", "setting": "[39]", "result": 45, "unit": "OD"}, {"measurement": "OD value", "setting": "[40]", "result": 72, "unit": "OD"}, {"measurement": "OD value", "setting": "[41]", "result": 92, "unit": "OD"}, {"measurement": "OD value", "setting": "[42]", "result": 100, "unit": "OD"}, {"measurement": "OD value", "setting": "[43]", "result": 151, "unit": "OD"}, {"measurement": "OD value", "setting": "[44]", "result": 113, "unit": "OD"}, {"measurement": "OD value", "setting": "[45]", "result": 98, "unit": "OD"}, {"measurement": "OD value", "setting": "[46]", "result": 96, "unit": "OD"}, {"measurement": "OD value", "setting": "[47]", "result": 93, "unit": "OD"}, {"measurement": "OD value", "setting": "[48]", "result": 104, "unit": "OD"}, {"measurement": "OD value", "setting": "[49]", "result": 98, "unit": "OD"}, {"measurement": "OD value", "setting": "[50]", "result": 41, "unit": "OD"}, {"measurement": "OD value", "setting": "[51]", "result": 69, "unit": "OD"}, {"measurement": "OD value", "setting": "[52]", "result": 125, "unit": "OD"}, {"measurement": "OD value", "setting": "[53]", "result": 71, "unit": "OD"}, {"measurement": "OD value", "setting": "[54]", "result": 72, "unit": "OD"}, {"measurement": "OD value", "setting": "[55]", "result": 89, "unit": "OD"}, {"measurement": "OD value", "setting": "[56]", "result": 78, "unit": "OD"}, {"measurement": "OD value", "setting": "[57]", "result": 62, "unit": "OD"}, {"measurement": "OD value", "setting": "[58]", "result": 88, "unit": "OD"}, {"measurement": "OD value", "setting": "[59]", "result": 79, "unit": "OD"}, {"measurement": "OD value", "setting": "[60]", "result": 113, "unit": "OD"}]}
